4 molecules from patent US20210147564A1 (TENEOBIO, published 2021) can be followed below.

In experiment [1] the target is T1, human BCMA on NCI-H929 cells (human, UniProt Q02223 1-184).
T1 construct: whole, on cells; also called H929 human cells that express BCMA; BCMA-expressing cell line (H929)
T1 sequence (looked up): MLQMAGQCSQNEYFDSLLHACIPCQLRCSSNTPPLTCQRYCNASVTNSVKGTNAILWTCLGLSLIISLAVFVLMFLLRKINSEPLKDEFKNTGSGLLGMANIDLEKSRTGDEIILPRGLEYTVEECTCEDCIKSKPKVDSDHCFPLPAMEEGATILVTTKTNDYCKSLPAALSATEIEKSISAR
Briefly: flow cytometry on H929 cells. The procedure: Supernatants of the 4 test anti-BCMA antibodies were also tested by flow cytometry for binding to H929 cells. The samples were measured by flow cytometry using a Guava easyCyte 8HT instrument from EMD Millipore and analyzed using guavaSoft. Bound antibodies were detected with goat anti-human IgG F(ab)2 conjugated to PE (Southern Biotech 2042-09). All antibodies were diluted in PBS with 1% BSA. Positive staining was determined by comparison to staining with a human IgG1 isotype control.
(A flow cytometer gives signals particle by particle.)

Experiment [2] concerns the target T2, human BCMA ECD protein (Abcam ab50089) (human, UniProt Q02223 1-54).
T2 construct: extracellular domain; Bought protein; also called human BCMA protein; recombinant BCMA protein
T2 sequence (looked up): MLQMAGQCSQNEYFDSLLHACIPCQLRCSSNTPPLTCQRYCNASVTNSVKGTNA
The experiment is described as follows: ELISA on human BCMA ECD; Octet off-rate. Here is the method:
Supernatants of 4 antibodies were tested for binding in a standard ELISA assay to human and cynomolgus BCMA. Binding to recombinant BCMA protein was determined by ELISA using human BCMA ECD obtained from Abcam (ab50089). The BCMA ECD protein was used at a concentration of […] to capture UniAbs at 50 ng/mL. Binding of UniAbs was detected with a goat anti-human IgG HRP conjugated antibody (ThermoFisher 31413). All antibodies were diluted in 1×TBS with 0.05% Tween-20 and 1% dry milk powder.
On the technique in general: In an ELISA, binding on a coated surface is turned into a signal by an enzyme label.

B1: heavy chain-only anti-BCMA antibody (UniAb) with the heavy chain variable region of SEQ ID NO: 13 (antibody, V domains shown)
VH: QVQLVESGGGLVQPGGSLRLSCAASGFTFSSHAMTWVRQAPGKGLEWVAAISGSGDFTHYADSVKGRFTISRDNSKNTVSLQMNNLRAEDTAVYYCAKDEDGGSLLGYRGQGTLVTVSS
notes: Heavy chain-only antibody expressed in HEK cells (CH1 deleted, no light chain), tested as supernatant; also called anti-BCMA UniAb; HCAb
Consider B1, for which the binding result in experiment [1] and in experiment [2] was “binds” in each case.

B2: heavy chain-only anti-BCMA antibody (UniAb) with the heavy chain variable region of SEQ ID NO: 14 (antibody, V domains shown)
VH: EVQLLESGGGLIQPGGSLRLSCAASGFTFSSHAMTWVRQAPGKGLEWVSAISGSGDYTHYADSVKGRFTISRDNSKNTVYLQMNSLRAEDSAVYYCAKDEDGGSLLGHRGQGTLVTVSS
notes: as for B1
For the molecule B2, the binding result in experiment [1] and in experiment [2] was “binds” in each case.

B3: heavy chain-only anti-BCMA antibody (UniAb) with the heavy chain variable region of SEQ ID NO: 12 (antibody, V domains shown)
VH: QVQLVESGGGLVQPGGSLRLSCAASGFTFTNHAMSWVRQAPGKGLELVSSISGNGRTTYYADSVKGRFTISRDISKNTLDLQMNSLRAEDTAVYYCAKDGGETLVDSRGQGTLVTVSS
notes: as for B1
In the case of B3, the binding result in experiment [1] and in experiment [2] was “binds” each time.

B4: heavy chain-only anti-BCMA antibody (UniAb) with the heavy chain variable region of SEQ ID NO: 15 (antibody, V domains shown)
VH: EVQLLESGGGLVQPGGSLRLSCAASGFTFSSYAMSWVRQAPGKGLEWVSSISGSGDYIYYADSVKGRFTISRDISKNTLYLQMNSLRAEDTAVYYCAKEGTGANSSLADYRGQGTLVTVSS
notes: as for B1
For the molecule B4, the binding result in experiment [1] and in experiment [2] was “binds” in each case.
